In patent EP4389215A1 (Consejo Superior De Investigaciones Científicas, dated 2024):
One block for each molecule: values may come before it.

Experiments:
[1] = molecular target: prion-like domain (PLD) of human TDP-43 (TDP-43 274-414), unmodified (human) (UniProt Q13148); assay: 15N CPMG relaxation dispersion, 200 µM PLD, region 321-343; self-assembly
[2] = molecular target: prion-like domain (PLD) of human TDP-43 (TDP-43 274-414), unmodified (human) (UniProt Q13148); assay: cell-based or functional assay
[3] = molecular target: the molecule itself; assay: cell-based or functional assay

- kex (exchange rate, 15N CPMG) [1]: > 2000 s⁻¹
- t1/2 (h) of ThT aggregation, 10 µM PLD monomer, 0 % PLD seeds [2]: 4.87 h
- t1/2 (h) of ThT aggregation, 10 µM PLD monomer, 0.1 % PLD seeds [2]: 4.99 h
- t1/2 (h) of ThT aggregation, 10 µM PLD monomer, 0.5 % PLD seeds [2]: 2.88 h
- t1/2 (h) of ThT aggregation, 10 µM PLD monomer, 1 % PLD seeds [2]: 2.86 h
Molecule: prion-like domain (PLD) of human TDP-43 (TDP-43 274-414), unmodified (from UniProt Q13148 274-414)

B1: MetO PLD (MetO-PLD polypeptide of the invention; SEQ ID NO: 2 with oxidized methionine residues) (other)
chain: GRFGGNPGGFGNQGGFGNSRGGGAGLGNNQGSNMGGGMNFGAFSINPAMMAAAQAALQSSWGMMGMLASQQNQSGPSGNNQNQGNMQREPNQAFGSGNNSYSGSNSGAAIGWGSASNAGSGSGFNGGFGSSMDSKSSGWGM
modifications: methionine sulfoxide at all Met residues (M307, M311, M322, M323, M336, M337, M339, M359, M405, M414, numbered on full human TDP-43, SEQ ID NO: 3); full MetO validated by mass spectrometry and NMR (M414 not detected by MS)
- t1/2 (h) of ThT aggregation, 10 µM MetO PLD monomer, 0 % MetO PLD seeds [3]: 54.9 h
- t1/2 (h) of ThT aggregation, 10 µM MetO PLD monomer, 0.1 % MetO PLD seeds [3]: 38.3 h
- t1/2 (h) of ThT aggregation, 10 µM MetO PLD monomer, 0.5 % MetO PLD seeds [3]: 18.7 h
- t1/2 (h) of ThT aggregation, 10 µM MetO PLD monomer, 1 % MetO PLD seeds [3]: 18 h
